One assay addresses T1, Pep1 (human, N-terminal biotin).
T1 construct: Synthetic 20-mer of human IL-33
T1 peptide: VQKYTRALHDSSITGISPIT
Description: ELISA, biotinylated peptide on streptavidin plate, antibody 10 µg/mL, well 1. As for the experimental part:
(§1) To determine the binding activity of antibody to each polypeptide fragment, the ELISA plate was pre-coated by biotin-avidin (SA) which was diluted in coating solution (50 mM carbonate coating buffer, pH 9.6) to 2 μg/ml at 4° C. overnight. The plate was washed with PBST for 3 times, and then blocked with 2% BSA prepared in PBS at room temperature for 2 h with 200 μL/well. The plate was washed once with PBST, and 864F3 and 874F7 with final concentrations of 10 μg/mL were added at 100 μL/well, respectively, and the plate was incubated at room temperature for 1 h. The plate was washed with PBST for 3 times, and the goat anti-mouse IgG labeled by HRP was added and placed at 37° C. for 30 min. After washing the plate with PBST for 3 times, the plate was patted on the absorbent paper to remove residual droplets as far as possible. 100 μl TMB developing solution was added to each well, and the plate was placed at room temperature (20±5° C.) for 5 minutes away from light; 50 μl 2M H₂SO₄ terminating solution was added to each well to terminate the substrate reaction. OD values were read at 450 nm on the microplate reader to analyze the binding ability of the antibody to each polypeptide fragment. The experimental results are shown in […]

The target of a further assay is T2, Pep2 (human, N-terminal biotin).
T2 construct: Synthetic 20-mer of human IL-33
T2 peptide: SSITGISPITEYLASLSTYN
Described as above. Here is the method:
as §1

A further assay addresses T3, Pep3 (human, N-terminal biotin).
T3 construct: Synthetic 20-mer of human IL-33
T3 peptide: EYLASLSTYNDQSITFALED
Described as above. As for the experimental part:
as §1

A further assay deals with T4, Pep4 (human, N-terminal biotin).
T4 construct: Synthetic 20-mer of human IL-33
T4 peptide: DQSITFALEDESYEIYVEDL
Described as above. Here is the method: as §1

A further assay addresses T5, Pep5 (human, N-terminal biotin).
T5 construct: Synthetic 20-mer of human IL-33
T5 peptide: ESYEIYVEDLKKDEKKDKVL
The description is as above. Here is the method: as §1

In the next assay the target is T6, Pep6 (human, N-terminal biotin).
T6 construct: Synthetic 20-mer of human IL-33
T6 peptide: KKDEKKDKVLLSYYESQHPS
Described as above. As for the experimental part: as §1

In another assay the target is T7, Pep7 (human, N-terminal biotin).
T7 construct: Synthetic 20-mer of human IL-33
T7 peptide: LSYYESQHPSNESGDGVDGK
The description is as above. Here is the method: as §1

Another assay deals with T8, Pep8 (human, N-terminal biotin).
T8 construct: Synthetic 20-mer of human IL-33
T8 peptide: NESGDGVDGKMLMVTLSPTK
The description is as above. Here is the method: as §1

The next assay has as its target T9, Pep9 (human, N-terminal biotin).
T9 construct: Synthetic 20-mer of human IL-33
T9 peptide: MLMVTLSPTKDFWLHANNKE
Described as above. As for the experimental part: as §1

A further assay concerns the target T10, Pep10 (human, N-terminal biotin).
T10 construct: Synthetic 20-mer of human IL-33
T10 peptide: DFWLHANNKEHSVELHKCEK
The description is as above. Here is the method:
as §1

A further assay deals with T11, Pep11 (human, N-terminal biotin).
T11 construct: Synthetic 20-mer of human IL-33
T11 peptide: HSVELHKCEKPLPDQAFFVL
The description is as above. As for the experimental part: as §1

In another assay the target is T12, Pep12 (human, N-terminal biotin).
T12 construct: Synthetic 20-mer of human IL-33
T12 peptide: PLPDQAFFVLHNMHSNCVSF
Described as above. As for the experimental part: as §1

In a further assay the target is T13, Pep13 (human, N-terminal biotin).
T13 construct: Synthetic 20-mer of human IL-33
T13 peptide: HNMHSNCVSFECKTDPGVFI
The description is as above. As for the experimental part:
as §1

Another assay concerns the target T14, Pep14 (human, N-terminal biotin).
T14 construct: Synthetic 20-mer of human IL-33
T14 peptide: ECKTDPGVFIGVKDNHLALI
The assay is described as above. Here is the method:
as §1

In a further assay the target is T15, Pep15 (human, N-terminal biotin).
T15 construct: Synthetic 20-mer of human IL-33
T15 peptide: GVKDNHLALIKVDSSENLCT
The assay is described as above. Here is the method:
as §1

The target of the next assay is T16, Pep16 (human, N-terminal biotin).
T16 construct: Synthetic 20-mer of human IL-33
T16 peptide: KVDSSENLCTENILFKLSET
Described as above. Here is the method:
as §1

Assay [1] concerns the target T17, IL-33 mutant protein P59A (human, UniProt O95760 112-270).
T17 construct: Prokaryotic expression
T17 chain: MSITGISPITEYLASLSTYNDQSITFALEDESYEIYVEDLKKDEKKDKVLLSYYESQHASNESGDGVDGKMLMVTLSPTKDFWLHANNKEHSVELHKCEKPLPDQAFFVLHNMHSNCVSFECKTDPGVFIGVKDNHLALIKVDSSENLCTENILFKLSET
Kind of assay: ELISA as Example 9; row P59A. As for the experimental part:
SA protein was diluted to 2 μg/mL to coat ELISA plate at 100 μL/well overnight at 4° C. The plate was washed with PBST (PBS containing 0.05% Tween20) for 3 times, and blocked with 2% BSA prepared in PBS at 200 μL/well, at room temperature for 2 h. After the plate was washed twice with PBST, IL-33-his-biotin protein was diluted to 1 μg/mL with 1% BSA prepared in PBST, and was added to ELISA plate at 100 μL/well. The plate was incubated at room temperature for 1 h, and each monoclonal antibody was diluted with 1% BSA prepared in PBST in a 3-fold gradient. The highest concentration of antibody was 10 μg/mL, and the antibody was diluted for 12 gradients. Each diluted monoclonal antibody was added to ELISA wells with 100 μL/well, and the plate was incubated at room temperature for 1 h. Each sample was added to duplicate wells in parallel. The plate was washed with PBST for 3 times, and HRP-anti human IgG Fc secondary antibody prepared with PBST was diluted at an appropriate ratio, and was added to ELISA wells at 100 μL/well. […] Each reaction solution was shaken uniformly and OD450 nm was read on a microplate reader. The data was analyzed and EC₅₀ was calculated.
Subsequently, according to the experimental method of Example 9, the affinity of the above mutant proteins to 874F7-Hu1 was determined, and IL-33 proteins (WT-1, WT-2, WT-3, and WT-4) without any mutation were set as controls.

B1: 874F7 (antibody, V domains shown)
VH: QVQLKESGPGLVAPSHSLSITCNVSGFSLSKYGVHWIRQIPGRGLDWLGVLRAGGSTGYNSALMSRLSISKDSSKSQVFLKMNDLRTDDTAVYFCVRDHYYYSSYGGFVYWGQGTLVTVSA
VL: DIQMTQSPASQSASLGESVTITCLASQTIGAWLAWYRQQPGKSPQLLIYAATRLADGVPSRFSGSGSGTEFSFKINNLQAEDFVSYYCQQLDSSPYTFGGGTRLEM
notes: Murine hybridoma antibody purified on Protein G; also called murine antibody 874F7
For B1, the OD450 is 0.074 OD450 with Pep1; 0.056 OD450 with Pep2; 0.053 OD450 with Pep3; 0.05 OD450 with Pep4; 0.05 OD450 with Pep5; 1.04 OD450 with Pep6. Also, the OD450 with Pep7 amounted to 0.055 OD450; with Pep8, 0.053 OD450; with Pep9, 0.065 OD450; in the assay with Pep10, 0.053 OD450; with Pep11, 0.056 OD450; with Pep12 it was 0.056 OD450. The OD450 with Pep13 came out at 0.054 OD450; with Pep14, 0.059 OD450; with Pep15 it was 0.055 OD450; in the assay with Pep16, 0.049 OD450.

B2: 874F7-Hu1 (antibody, human IgG4 S228P, kappa)
heavy: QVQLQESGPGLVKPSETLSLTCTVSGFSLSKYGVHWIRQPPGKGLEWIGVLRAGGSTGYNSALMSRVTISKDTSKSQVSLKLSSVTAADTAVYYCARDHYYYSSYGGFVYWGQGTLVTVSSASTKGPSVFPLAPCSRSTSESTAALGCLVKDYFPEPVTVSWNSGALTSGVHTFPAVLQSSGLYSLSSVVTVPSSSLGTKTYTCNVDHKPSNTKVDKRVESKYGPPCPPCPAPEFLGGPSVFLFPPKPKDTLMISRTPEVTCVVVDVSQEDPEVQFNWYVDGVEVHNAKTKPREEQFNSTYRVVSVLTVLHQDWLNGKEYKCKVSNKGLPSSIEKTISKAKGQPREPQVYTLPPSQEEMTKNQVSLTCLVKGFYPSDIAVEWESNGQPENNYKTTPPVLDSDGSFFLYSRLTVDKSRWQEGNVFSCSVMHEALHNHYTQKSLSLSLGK
light: DIQMTQSPSSVSASVGDRVTITCLASQTIGAWLAWYQQKPGKSPKLLIYAATRLADGVPSRFSGSGSGTDFTLTISSLQPEDFATYYCQQLDSSPYTFGQGTKVEIKRTVAAPSVFIFPPSDEQLKSGTASVVCLLNNFYPREAKVQWKVDNALQSGNSQESVTEQDSKDSTYSLSSTLTLSKADYEKHKVYACEVTHQGLSSPVTKSFNRGEC
notes: also called 874F7-Hul; humanized antibody 874F7-Hu1
Regarding B2, the response in assay [1] was half-maximal at 0.12 nM (EC50).

These data come from US20230399394A1 (SUNSHINE GUOJIAN PHARMACEUTICAL SHANGHAI, published 2023).
